Experimental data taken from patent US20250376507A1, “NOVEL TUMOR ANTIGEN-TARGETING ANTICANCER AGENT” (INDUSTRY FOUNDATION OF CHONNAM NATIONAL UNIVERSITY, priority 2022, published 2025).
Where “and” joins values, the source holds several entries; their conditions need not be identical. Identical values can stand only once.

What was measured:
ecto-CRT on MC-38 cells [1] = target: T1, ecto-CRT on MC-38 cells (Mus musculus, UniProt P14211); assay: Flow cytometry binding to anticancer-agent-treated MC-38 cells; format: cell-based; parameters: endogenous in cells; host or cells: MC-38 mouse colon cancer cells (in culture); conditions: for binding to cells: 100 nM protein; for binding after pretreatment with anti-CRT antibodies: MC-38 cells treated with DOX or MTX
T1 sequence (P14211 18-416): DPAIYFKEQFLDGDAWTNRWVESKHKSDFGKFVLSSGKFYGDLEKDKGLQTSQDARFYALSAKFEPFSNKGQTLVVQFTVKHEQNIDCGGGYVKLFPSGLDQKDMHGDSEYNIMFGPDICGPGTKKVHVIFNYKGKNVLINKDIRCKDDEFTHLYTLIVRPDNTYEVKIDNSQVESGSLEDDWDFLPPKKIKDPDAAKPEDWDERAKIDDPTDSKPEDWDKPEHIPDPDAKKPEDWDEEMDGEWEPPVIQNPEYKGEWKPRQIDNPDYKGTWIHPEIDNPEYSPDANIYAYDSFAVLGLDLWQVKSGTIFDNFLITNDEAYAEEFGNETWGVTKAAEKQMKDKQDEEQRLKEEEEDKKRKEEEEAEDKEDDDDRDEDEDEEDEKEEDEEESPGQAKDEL
Description: (§1) Cells were cultured at 37° C. in DMEM medium supplemented with 10% FBS and 100 U of streptomycin/penicillin in an atmosphere of 5% CO2. Cells were treated with each anticancer drug [3 μM methotrexate (MTX), 25 μM […] (DOX), or 15 μM gemcitabine (GEM)] to induce apoptosis (Y. Zhang, et al., Cancers, 13 (11), 2801, 2021). After 4 h of incubation, the cells were scraped and detached from the plate. The cells (10^5) were fixed with 1% PFA for 15 min and then treated with 100 nM of PASylated recombinant proteins for 1 h on ice. After washing five times with cold PBS buffer containing 0.1% Tween-20 (T-PBS), the cells were incubated with anti-His tagged monobodies (diluted to 1:1000) for 1 h and then treated with Alexa Fluor 488-conjugated secondary antibodies (5 μg/mL) for 1 h. Fluorescence signals were detected by FACSCanto II Flow Cytometer (BD Biosciences, USA). For blocking experiments, cells were first incubated with anticancer agents for 4 h and fixed with 1% PFA. Cells were then incubated with anti-CRT antibodies (diluted to1: 400) for 1 h to mask ecto-CRT. Cells were stained with PASylated recombinant proteins and followed the same procedure as described above.

ecto-CRT on CT-26 cells [2] = target: T2, ecto-CRT on CT-26 cells (Mus musculus, UniProt P14211); assay: Flow cytometry binding to anticancer-agent-treated CT-26 cells; format: cell-based; conditions: for binding to cells: 100 nM protein; for binding after pretreatment with anti-CRT antibodies: CT-26 cells treated with DOX or MTX
T2 sequence (P14211 18-416): T1 sequence (P14211 18-416)
Description: as §1

ecto-CRT on MC-38 cells [3] = target: T1, ecto-CRT on MC-38 cells; assay: Confocal immunofluorescence staining of MC-38 cells; format: cell-based; parameters: endogenous in cells; host or cells: CT-26 and MC-38 mouse colon cancer cells (in culture, or CT-26 tumors in mice)
Description: (§2) PASylated CRT-targeted L-ASNases bound to ecto-CRT on cells were visualized by confocal immunofluorescence microscopy with reference to the prior art (Y. Zhang, et al., Cancers, 13(11), 2801, 2021). After overnight incubation in a cover-glass, CT-26 and MC-38 cells (104) were treated with anticancer agents for 4 h at 37° C. The cells were then fixed with 1% PFA for 15 min, stained with 100 nM PASylated recombinant proteins for 1 h on ice, and treated with anti-His tagged monobodies (diluted to 1:1000) and Alexa Fluor 488-conjugated secondary antibody for 1 h (5 μg/mL). Cell membranes were stained with Alexa Fluor 555-conjugated wheat germ agglutinin (WGA) (diluted to 1:5000). Between each step, samples were washed with cold T-PBS. Finally, the cells were incubated with 4′,6-diamidino-2-phenylindole (DAPI) (Thermo Fisher Scientific, USA) to stain the nuclei. Immunofluorescence signals were imaged using an LSM510 confocal microscope (ZEISS, Jena, Germany) and data were analyzed with ZEN-LSM imaging software (ZEISS, Jena, Germany).

MC-38 tumor = assay: In vivo anti-cancer efficacy in MC-38 tumor-bearing mice; parameters: species or system C57BL/6 mice; conditions: summary statement
Description: (§3) CT-26 and MC-38 tumor cells (106 in 100 μL PBS) were implanted subcutaneously into the right flanks of 6-week-old BALB/c and C57BL/6 female mice (Orient company, Korea), respectively. When the tumors reached about 100 mm^3, the tumor-bearing mice were injected intraperitoneally with anticancer agents (15 mg/kg GEM, 10 mg/kg DOX or 2 mg/kg MTX) three times every 2 days. Simultaneously, the mice were injected intravenously with the PASylated recombinant proteins of the present invention five times every 2 days. The length (L), width (W), and height (H) of each tumor were recorded every 3 days using a digital caliper, and the tumor volume (mm3) was calculated using the following formula (L×H×W)/2. Mice were euthanized when tumors were ˜1,500 mm^3 and all animal experiments were performed in accordance with the general principles and procedures outlined in the National Institutes of Health Guidelines, and all protocols were approved by the Chonnam National University Animal Care and Use Committee (permit number: HCRL 16-001).

ecto-CRT on CT-26 cells [4] = target: T2, ecto-CRT on CT-26 cells; assay: Confocal immunofluorescence staining of CT-26 cells; format: cell-based; parameters: endogenous in cells; host or cells: CT-26 and MC-38 mouse colon cancer cells (in culture, or CT-26 tumors in mice)
Description: as §2

CT-26 tumor = assay: In vivo anti-cancer efficacy in CT-26 tumor-bearing mice; conditions: for tumor suppression in mice treated with GEM: combination with GEM (non-ICD-inducing); for tumor growth in mice treated with ICD-inducing drugs: summary statement, doxorubicin and mitozantrone
Description: as §3

CT-26 cells = assay: Cell viability (CCK-8) of CT-26 cells; format: cell-based, mouse; conditions: 1 IU/mL; for cell viability: 24 h, no anticancer pretreatment; for reduction of viability of cells pretreated with DOX and MTX, higher extent: 24 h after DOX or MTX pretreatment; for reduction in cell viability in cells pretreated with GEM: 24 h after GEM pretreatment
Description: CT-26 and MC-38 cells (10^4 cells per well) were seeded into three wells of a 96-well plate and incubated at 37° C. The next day, the culture medium was replaced with 100 μL of fresh medium containing the above concentrations of anticancer agents. After incubation at 37° C. for 4 h, the culture medium was removed and the cells were washed three times with PBS. […] Finally, CCK-8 reagent (10 μL/well) was added for 3 h at 37° C., and the amount of color in each sample was measured at OD450.

[5] = MC-38 cells treated with DOX and MTX
[6] = MC-38 cells with GEM or PBS treatment
[7] = CT-26 cells treated with DOX and MTX
[8] = CT-26 cells with GEM or PBS treatment
[9] = MC-38 cells treated with DOX or MTX
[10] = CT-26 cells treated with DOX or MTX

B1: CRT4LP: PASylated L-ASNase fused with CRT-targeting CRT4 monobody at N-terminus and PAS200 tag plus His6 tag at C-terminus (protein)
chain: MASVSDVPRDLEVVAATPTSLLISWGQPMYGQPMYYYRITYGETGGNSPVQEFTVPGSKSTATISGLKPGVDYTITVYAVTKLGFFKRPISINYRTSGGGGSGGGGSEFLPNITILATGGTIAGGGDSATKSNYTAGKVGVENLVNAVPQLKDIANVKGEQVVNIGSQDMNDDVWLTLAKKINTDCDKTDGFVITHGTDTMEETAYFLDLTVKCDKPVVMVGAMRPSTSMSADGPFNLYNAVVTAADKASANRGVLVVMNDTVLDGRDVTKTNTTDVATFKSVNYGPLGYIHNGKIDYQRTPARKHTSDTPFDVSKLNELPKVGIVYNYANASDLPAKALVDAGYDGIVSAGVGNGNLYKTVFDTLATAAKNGTAVVRSSRVPTGATTQDVEVDDAKYGFVASGTLNPQKARVLLQLALTQTKDPQQIQQIFNQYGSSGGGGSGGGGSASPAAPAPASPAAPAPSAPAASPAAPAPASPAAPAPSAPAASPAAPAPASPAAPAPSAPAASPAAPAPASPAAPAPSAPAASPAAPAPASPAAPAPSAPAASPAAPAPASPAAPAPSAPAASPAAPAPASPAAPAPSAPAASPAAPAPASPAAPAPSAPAASPAAPAPASPAAPAPSAPAASPAAPAPASPAAPAPSAPAAGSHHHHHH
ecto-CRT on MC-38 cells [1]; [5]
  binding to cells: efficiently bound
ecto-CRT on MC-38 cells [1]
  binding after pretreatment with anti-CRT antibodies: significantly inhibited
ecto-CRT on MC-38 cells [1]; [6]
  binding to cells: not
ecto-CRT on CT-26 cells [2]; [7]
  binding to cells: efficiently bound
ecto-CRT on CT-26 cells [2]
  binding after pretreatment with anti-CRT antibodies: significantly inhibited
ecto-CRT on CT-26 cells [2]; [8]
  binding to cells: not
ecto-CRT on MC-38 cells [3]; [9]
  immunofluorescence staining, binding to cells: only bound
ecto-CRT on MC-38 cells [3]; MC-38 cells treated with GEM
  immunofluorescence staining, binding to cells: not
MC-38 tumor
  tumor growth in mice treated with ICD-inducing drugs: significantly inhibiting tumor growth
ecto-CRT on CT-26 cells [4]; [10]
  immunofluorescence staining, binding to cells: only bound
ecto-CRT on CT-26 cells [4]; CT-26 cells treated with GEM
  immunofluorescence staining, binding to cells: not
CT-26 tumor
  tumor suppression in mice treated with GEM: not and did not enhance tumor suppression
  tumor growth in mice treated with ICD-inducing drugs: significantly inhibiting tumor growth
CT-26 cells
  cell viability: barely affected
  reduction of viability of cells pretreated with DOX and MTX, higher extent: 2 fold
  reduction in cell viability in cells pretreated with GEM: not observed

B2: CRT3LP: PASylated L-ASNase fused with CRT-targeting CRT3 monobody at N-terminus and PAS200 tag plus His6 tag at C-terminus (protein)
chain: MASVSDVPRDLEVVAATPTSLLISWKLGFFKRYYRITYGETGGNSPVQEFTVPGSKSTATISGLKPGVDYTITVYAVTGQPMYGQPMYPISINYRTSGGGGSGGGGSEFLPNITILATGGTIAGGGDSATKSNYTAGKVGVENLVNAVPQLKDIANVKGEQVVNIGSQDMNDDVWLTLAKKINTDCDKTDGFVITHGTDTMEETAYFLDLTVKCDKPVVMVGAMRPSTSMSADGPFNLYNAVVTAADKASANRGVLVVMNDTVLDGRDVTKTNTTDVATFKSVNYGPLGYIHNGKIDYQRTPARKHTSDTPFDVSKLNELPKVGIVYNYANASDLPAKALVDAGYDGIVSAGVGNGNLYKTVFDTLATAAKNGTAVVRSSRVPTGATTQDVEVDDAKYGFVASGTLNPQKARVLLQLALTQTKDPQQIQQIFNQYGSSGGGGSGGGGSASPAAPAPASPAAPAPSAPAASPAAPAPASPAAPAPSAPAASPAAPAPASPAAPAPSAPAASPAAPAPASPAAPAPSAPAASPAAPAPASPAAPAPSAPAASPAAPAPASPAAPAPSAPAASPAAPAPASPAAPAPSAPAASPAAPAPASPAAPAPSAPAASPAAPAPASPAAPAPSAPAASPAAPAPASPAAPAPSAPAAGSHHHHHH
ecto-CRT on MC-38 cells [1]; [5]
  binding to cells: efficiently bound
ecto-CRT on MC-38 cells [1]
  binding after pretreatment with anti-CRT antibodies: significantly inhibited
ecto-CRT on MC-38 cells [1]; [6]
  binding to cells: not
ecto-CRT on CT-26 cells [2]; [7]
  binding to cells: efficiently bound
ecto-CRT on CT-26 cells [2]
  binding after pretreatment with anti-CRT antibodies: significantly inhibited
ecto-CRT on CT-26 cells [2]; [8]
  binding to cells: not
ecto-CRT on MC-38 cells [3]; [9]
  immunofluorescence staining, binding to cells: only bound
ecto-CRT on MC-38 cells [3]; MC-38 cells treated with GEM
  immunofluorescence staining, binding to cells: not
MC-38 tumor
  tumor growth in mice treated with ICD-inducing drugs: significantly inhibiting tumor growth
ecto-CRT on CT-26 cells [4]; [10]
  immunofluorescence staining, binding to cells: only bound
ecto-CRT on CT-26 cells [4]; CT-26 cells treated with GEM
  immunofluorescence staining, binding to cells: not
CT-26 tumor; 20 IU CRT3LP per injection, DOX-treated mice, by day 12
  sudden death of mice: caused sudden death and 2 out of 3 and Two of the mice injected with 20 IU died
CT-26 tumor; DOX-treated mice
  optimal therapeutic dose: 8 IU/injection/mouse
CT-26 tumor
  tumor suppression in mice treated with GEM: not and did not enhance tumor suppression
  tumor growth in mice treated with ICD-inducing drugs: significantly inhibiting tumor growth
CT-26 cells
  cell viability: barely affected
  reduction of viability of cells pretreated with DOX and MTX, higher extent: 2 fold
  reduction in cell viability in cells pretreated with GEM: not observed
